Results: US12668821B2, “Enzymatic production of glucaric acid from glucuronic acid” (THE GOVERNING COUNCIL OF THE UNIVERSITY OF TORONTO, priority 2019, dated 2026)

Legend:
[1] = H2O2 inhibition assay of AxyAgu115A on glucuronoxylan; format: biochemical, beechwood
Description: FIG. 10: HPAEC-PAD analyses of H2O2 effects on AxyAgu115A activity and MeGlcA degradation.
AxyAgu115A (10 μg/mL) was incubated with 1% glucuronoxylan in 50 mM Tris buffer pH 8.0 in the presence of various H2O2 concentrations (0.01-100 mM). MeGlcA (1 mM) was also incubated with the same H2O2 concentrations. The reactions were kept in the dark at 40° C. for 16 h in a thermomixer (Eppendorf, USA). Catalase (200 μg/mL) was then added, and the reactions were kept incubating for another 30 min to remove H2O2 before HPAEC-PAD analysis.
The MeGlcA concentration released by AxyAgu115A from 6% glucuronoxylan after 16 h was around the Km of GOOX-Y300A on this acidic sugar, supporting the usage of GOOX-Y300A and AxyAgu115 in a one-pot reaction. […] Thus, a one-pot sequential reaction was performed where GOOX-Y300A was added to the reaction after pre-hydrolysis of glucuronoxylan by AxyAgu115A for 4 h. Following 16 h of incubation with GOOX-Y300A, methyl glucaric acid yields were similar to those achieved using the two-pot sequential system described above (i.e., 60% yield as confirmed by LC-MS).

[2] = Release of MeGlcA from glucuronoxylan by AxyAgu115A (HPAEC-PAD); format: biochemical, beechwood; details: from 1.5 g glucuronoxylan, calculated on the MeGlcA standard curve
Description: Glucuronoxylan (6%) was incubated with AxyAgu115A (10 μg/mL) and GOOX-Y300A (10 μg/mL) in 100 mM Tris buffer pH 8.0 at 40° C. in a rotator oven for up to 72 h. The reactions were then vacuum-filtered using 96-well filter plates (0.22-μm PVDF membrane) (Millipore, USA) in a Tecan liquid handler (500 mbar) (Tecan Trading AG, Switzerland). Enzymatic products in the flow-through were confirmed by mass spectrometry and quantified by HPAEC-PAD analysis.
Reaction samples were vacuum-filtered using 0.22-μm, PVDF filter plates (Millipore, USA) with a Tecan liquid handler (500 mbar) (Tecan Trading AG, Switzerland). […] The presence of acidic sugars was detected using an ICS5000 HPAEC-PAD system (Dionex, USA) with a CarboPac PA1 (2×250 mm) analytical column (Dionex, USA). […] Chromatograms were analyzed using Chromeleon 7.2 (Dionex, USA).
AxyAgu115A was produced with high purity (FIG. 2). The treatment of glucuronoxylan with AxyAgu115A released only MeGlcA, as analyzed by HPAEC-PAD (FIG. 3), and no additional release of MeGlcA was seen after 16 h. […]
The concentration of MeGlcA released from 1.5 g glucuronoxylan was 21.6±1.2 mM, calculated by on the MeGlcA standard curve (FIG. 5) whereas the estimated molar concentration of MeGlcA, based on a previous analysis of glucuronoxylan composition (Teleman et al., 2002), was 24.4 mM. […]

B1: AxyAgu115A: GH115 α-glucuronidase from Amphibacillus xylanus, SEQ ID NO: 4 (protein, listed as Amphibacillus xylanus)
chain: MDFTLNQEMLMTDTKSGALFYQEEEALSGVRKIANKVMHDVELVFGYQPEATKDRDMLSRHAVLYGTVGHSPLLDELNKKELIDLTEIAGKREVFLFQVVDQPIQGVEKALVIAGSDKRGTIYGLFHLSEKLGVSPLVDWSGVLPARKESFSLKGDYKYVSKEPSVKYRGFFINDEWPAFGNWSAKNFGGFNAEMYDHVFELLLRLKGNYLWPAMWSARFNDDGPGLANVELADEYGVIMGASHHEPCLRYGEEYKYLRGPDSIYGDAWNFITNREGITKFWEDGLKRTGHFENIITIGMRGEADTKIMGEDATLEDNINLLRDVIQTQNKLIKEHVNPNLKEVPRMLALYKEVEPFFYGDENTPGLINSEELEDVILMLCDDNHGNLRTLPTEDMRKHSGGYGMYYHFDYHGGPVSYEWINSSYLPKIWEQMTMAYDFGVRDLWIVNVGDIATQELPLSFFLDLAYDFDKWGTNAINKTDDYTKQWIEQQFAGVFNLEQKDKVFELLNGYTKIAHNRRPEAMNVDVYHPVNYHETDQLLDRIDHLLGLAEELYQEVDQQHFTAYFALVYYPTVGNLNLQKMWLLNGKNKYAAQLNLIEANKLAEQVKACLKRDQEIVDEYHTIADGKFYGMGLSEHIGFVHWNEDENKNPVLSYVLPVNKPRLLVSIDGTELRSEGSPWHVNTLPLVDFLEPDVNQASFTISSVSEKKAEYHISTDQDWLSCSAANGVLDGKNKLSETIHVFVDRDGLADQAEGRITVKTPVGKVTIVVPVVNNDFTNYPDMTFVDTKGYISIEAEHFATQKATENLDGTLNRFEVLDGYGKTLSAIKAFPTDTHYQVGKDAPFVEYHFVTQEAGVYELEFYLQPSNPVTREGTMYAGIQVNENDVDVINVLPDGYHVDGPHWGIDVINNIRTTKTKITCEQGLNKLRIYAVSPGFALEKIVIYPDGKKLANSYLGPNETYYVGR
- activity lost in the presence of H2O2 ([1]; 10 mM H2O2): approximately half of AxyAgu115A activity was lost
- H2O2 concentration at which activity was inhibited ([1]; 1% glucuronoxylan, 50 mM Tris pH 8.0, 40° C., 16 h): greater than 1 mM
- effect of higher H2O2 concentrations on MeGlcA released from glucuronoxylan ([1]; peak area, HPAEC-PAD, FIG. 10A): lowered the amount of MeGlcA released
- concentration of MeGlcA released from glucuronoxylan [2]: 21.6 ± 1.2 mM
